According to the supplement of paper PMC10567573:

B1: ZC3H15 (parent)
chain: RKADFKAGKALVISGREVFEFRPE

Variants of: B1
Test: protein stability index of a GFP-peptide fusion (GPS, HEK-293T) (PSI 1-6); higher = more stable
Conditions: c terminus: a fixed tail appended
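Also: lentivirally expressed fusions sorted by FACS into six bins by GFP to DsRed ratio, PSI derived from sequencing read proportions per bin multiplied by bin number.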

Protein stability index, by site and new letter:
E17: P 2.66, D 2.88
F19: V 3.25, I 3.51, Y 2.75, P 4.08, L 3.33, G 3.7, Q 3.63, E 4.23, N 4.05, R 4.24
D4: I 2.27, H 2.15, C 1.79, G 2.42, A 2.36, M 2.54, W 1.73
S14: N 2.66, K 3.32, E 3.67, F 1.23, H 3.31, G 3.11
L11: S 3.69, V 3.11, H 3.36, A 3.06, E 3.78, K 3.77, Y 2.29, M 2.84, D 3.69, I 2.72, Q 3.66, P 3.54
G15: L 1.81, C 2.07, W 1.37, K 3.14, H 2.2
K9: N 3.16, Q 2.65, R 2.31, H 2.93, I 1.57
A7: C 2.35, G 2.86, R 2.85, Q 2.93, V 2.91, T 3.12
R1: W 2.53, L 2.43, E 3.5, A 3.21, N 3.23, I 1.58, S 2.9, V 2.02, K 3.32, G 2.95
V12: G 3.17, K 2.91, A 3.23, W 2.4, M 3.26, E 3.49, D 4.03, Q 3.15
K6: P 2.72, S 2.82, E 3.24, F 1.79, C 2.79, N 3.22, V 3.03, W 2.4
E24: L 1.9, F 1.85, M 2, D 3.11, G 2.12, A 2.69, W 1.84, H 2.18
F5: N 3.38, E 4.18, I 2.94, W 2.48, L 3.93, Y 3.16, R 3.76, K 3.47
G8: A 2.94, I 2.23, S 2.7, D 3.31, L 1.92, K 3.24, Y 1.74
P23: V 1.94, Q 3.31, K 3.35, H 2.62, E 3.38, C 2.42, D 3.82, L 1.61, R 2.73, F 2.27
A10: K 2.47, S 2.86, C 2.12, V 2.49, H 2.75, T 2.88, M 2.09, P 3.73, R 3.09
R22: P 3.25, S 3.29, D 3.72, G 3.4, A 3, W 2.39
F21: I 2.68, N 3.73, S 3.91, M 3.29, A 3.05, P 3.69, K 3.58, Q 4.23, L 2.82, T 3.73, C 3.78, H 3.57
I13: F 2.32, D 4.17, L 3.55, T 3.21, R 3.89, A 3.86, Q 3.72, G 4, K 3.79
R16: N 3.63, M 2.08, A 2.71
K2: G 3.3, E 2.81, P 2.75, F 2.06, D 3.43
E20: F 1.96, Y 1.66, A 2.5, V 2.34, W 1.61, D 3.37, I 1.71
V18: E 3.89, D 3.69, R 3.58, Q 3.46
